Data reported in article PMC6234289.

Biological target: ribosome (40S ribosomal subunit) of RACK1-downregulated HeLa cells
Assay: in vitro ribosome interaction assay (iRIA)
Conditions: parent: est. 1.1; read off a plot

- response: 0.47 Abs450
Substance: MBP-RACK1, wild type (from UniProt P63244) R36D; K38E
